{"source": "paper PMC4676284", "about": "(mBio, 2015)", "proteins": {"B1": {"name": "Bartonella birtlesii strain LL-WM9 TrwG, soluble C-terminal periplasmic domain (domain or fragment)", "chain": "QPAPTPLVLRVDNTTGAVDVISVMREHETSYGEVVDRYWLNQYVLNRETYDYDTIQLNYDTTALLSTAAVQQEFYKIYEGEDARDKVLSNKARITVKVRSIQPNGRGQATVRFTTQQHDSTGAVGVKQHQIATIGYTYVGAPMKSSDRLLNPLGFQVTSYRTDPEILLNN"}, "B2": {"name": "Bartonella grahamii strain as4aup VirB8, soluble C-terminal periplasmic domain (domain or fragment)", "chain": "ALTPLKTVEPFVIRVDNSTGIIDTVSALKESPNDYDEAITRYFASQYVRAREGFQASEAENNFRLVSLLSSPKEQNRFGKWYAGNNPESPQNIYHNMIATVTIKSISFISKDLIQVRYYKTVRDFNEKENISHWISILNFSYVNAHISTSDRLINPLGFQVSEYRSDPEVIK"}, "B3": {"name": "Bartonella grahamii strain as4aup TrwG, soluble C-terminal periplasmic domain (domain or fragment)", "chain": "QPAPTPLVLRVDNTTGAVDVISVMREHETSYGEVVDRYWLNQYVLNRENYDYDTIQLNYDTTALLSAASVQQEYYKIYDGENARDKVLSNKARITVKVRSIQLNGLGQATVRFTTQQLDSSGATTGPKQHQIATIGYTYVGAPMKSSDRLLNPLGFQITSYRSDPEILLND"}}, "data": [{"molecular_target": "the molecule itself", "assay": "crystal structure", "values": [{"protein": "B1", "stoichiometry N": 2}, {"protein": "B2", "stoichiometry N": 2}, {"protein": "B3", "stoichiometry N": 2}]}]}
